Assay results from the NTF2 design screens of Basanta et al. (2020).

Test: protease stability score; higher = more stable; yeast display proteolysis, trypsin and chymotrypsin;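 further: relative to predicted unfolded state with 0 unfolded-like and 1 meaning tenfold more protease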

| Sequence | protease stability score |
| --- | --- |
| EEDHEIVEKMLKMLFHSWHTGDEKLFKTLVDPNAKFVIGDKTFHGREFYKFLHDRFDHFRMHDITVRKVEHFDGRLIAHVEIHWRLHIGDKTETEVTESHIIIEKIDGKWRNRSIIVH | 1.76 |
| EEDHSEVERRLEIILHKWETGDERILHHYLDPHAKFIINGREYHGRENALEHWVKSEEDLGVKHERLREYDFRYQGDKVELHTEIELHVGNKVFDIHIIIIARKVNGRWVIEEVRLEFR | 1.23 |
| EEDKDWAEWAMRLFVELLFTGDEERLNHFLDPHVRVEFNGRDLHGREMLEKLLELMGIDHIQFKHIELRVIDGQVHLHIDGFADIDGRTHRIRIHMHFEKINGKWRFHSVKFEHK | 1.39 |
| EEDKEDAKKAAEISSHSWETGDEDHLTKLFDPNVRITIGDKELHGMSLLHTFLREWGISNVDFRLHHIDVQGEKLKVDGILNVNGRHTKVTLHYEKINGKWVIKEIIII | 1.26 |
| EEDKETAEHFSRVLHENWETGDEHRELLYMDPNVRTDFNGVDAVGREEFHKLVHHLLTHIRMRSLHIRKVHIQGEYLHIEGELNTEVNGREVVLEMRITSLKINGRWITHSMHFR | 0.304 |
| EEDLEHILELSEYFIRAWSTGDWDTIHKYADPHVRSDINGVESHGMEEMIRVYEEIRVTIEHVHYDHVTVQGEKLIVDGRMDYRVDINGKKKEHRTRVEIHVDVVNGRIKSFVINYR | 1.23 |
| EEDQEIFEQAMRELINSNLTGNEHRMQELADPHVRLIVGDKTYIGRESIWRFLFEWRIDHIEIRSYDIQGDKVHVDIEVHMRYGDKSTVSRMELRAEKVNGRWHIHFIRIH | 1.75 |
| EEDQKMLEMVFRIILDLWITGDFDLIERLLDPDVRLDSKIGDKTVHHHGREEVAKHLFHIRIEDFIIHRVHVQGDKITINGELDGHFNGKRFNSEIHIHYVVINGRIRRLSFEEN | 2.2 |
| EEDREHAREILRQLHHWFMTGDEEKWSKLMDPDARHHIHVGDKHSEYHGREEVIRFLRELIRHWRIDEVRIRRLHSIDGRVHSDIIVDGQVDGRHDRRDYELRVSVVDGRLKEVTIIVH | 1.07 |
| EEDREWVERIIRHYREAELTGDEDRMKELVDPNTRFHIDGVVYHGMDEWTRYVRELRMRSRTRVHQVRVIDGRIEADFEYEIHIEINGVQIDRRQEVILIFKKVNGKWIVERVIVV | 1.93 |
| EEDRKHAEHVFELLMEVLLTGDWKMSRHLFDPNARIEIDGVESHGWEFIYRLLRFIWEHLGIKVRDMKIRRFDVINGVAHFDGELRLHVDGVEIVLEIRLNIFVINGRLKEVHLKRT | 1.42 |
| EEDRNDVEDFLRMFRTALTTGDEHILEHLADPNTRVDINGKEWHGWHHVSELHKKHLEDLGADHVEFRVHDFRIIGNKVHVDSRLIEHQGDKILIINTIIIQLKINGRWVIHELRFR | 0.988 |
| EEDRRMVEDAIRIFLKSLRTGDEESLTRMVDPHVKYHQGEYHMHGREELVRYFAERWEELGVENINTDMRPTHIEFQGEKIIIMGRYHLHVNGRESHTRIEFIATKIDGQWRLHKIRFE | 1.53 |
| EEDSEMAREISESILRMIKTGDERHFMRLLDPHVKIDINGREHHGRHAATHQLRETSEKFGFDRITVRLESVHVQGEYVNINGRVEQGDFHLTLHFHFRKIDGRWVMDSVHIV | 0.559 |
| EEEAAHQFNKWLSLMKHGNEHKASEMLDKDAHIKVGDKTLQGREDVQRDVRRRKEELKFSMTIVDYKDHGDKARLTVEQTNDHNGRPRTRRANVTVHVSNGRVKEIVINDDS | -0.16 |
| EEEDDVLHEFLREFIHFFSTGDFDHIIEMLDPNTQQHVGDKINIGREEWKHWLKFHLDRLGVDQVRVHVRRVRFFNGRVELNIELRQGDYVFDARILALKVDGRWLLESVEIK | 2.82 |
| EEEDEWSREAVEFFKRMVETGDEDLQETLADPNARLIQGDKDEHGRHVLSEWMHRMGVDHIRFHHIDVQGDKVRLDFTMRVNGRQIHVKINNMKVNGQWRIKSVHLR | 0.537 |
| EEEDREFEERWKEFEHAMRTGDEDSLEENLDPNVRFLFDGQEIVGRELTSKFIAEWLRSLGVEKVTIFMRRFHVIGDKVTVDGAFEVNGVHIRTIVYSKKVNGRWFNKSEEFR | 0.733 |

| Sequence | protease stability score |
| --- | --- |
| EEEDRIFKEARRLLEYVSETGDETTLKKLVDPHARTHIGDKLLHGREWLHDLLRKAGEDRFHFIIHHVDLQGDKIQMFGQLVIGDKLIHVEIIVNKIDGRWFVESIKID | 0.889 |
| EEEEEDARRASKIFYHNFLTGDEQNLLKLADPHVLLIINGVHFHGWERYKKWEEERRDKFKNVRLELEDMDVEVIGDKIESIIHLRVDIGDKRIHMEVIFIIEKVDGRWKLRSQEVRIE | 1.03 |
| EEEEEELLELLKRLWHAKSTGDEETTEKMADPNARFIINGREVHGRHMLNHLVKHLREEIKHVHIHRVSVVNGKAKMDTEVNVELEYNGVTFIIRTRVEIDTVVIDGRFHSVSIEIR | 1.12 |
| EEEEEFLRIMIELFLRTVKTGDEDAFNKLADPNVKSNINGVTLHGMERHHEWLRIELEKAGVERVDTRLDDKNIIDGRVIVHGTMFYNGRTITVHNIWHKINGRWVLETIEIR | 1.6 |
| EEEEEHMEHMMRLTLQLFKTGDEETFIDLLDPNVKVHINGVTVHGWDRLIRVKEMIDKEIRFRDFIIHHIRVVDGRAEMEGTVTGDVNGQSRIRDWRSILVVIDGKIKSISWQFN | 2.27 |
| EEEEEKQERALRWFLHIIETGNEELLHRLLDPNVQVEIGDKRFHGWKHLLMVFNDLGVKHVELRDFTIINGVIRNEILLRVGDKENLTILILRKVDGKWQLERFNLQ | 1.79 |
| EEEEENAKQFFHIWERSMRTGDEKTLHELADPHVRAVIGDKHHIGREEFHEVIRQTMEHIRVDDMILHTIMVYDGKVEILGRLVVRVGDKTHEVHVKIQVEKINGRWLLTELHIK | 0.074 |
| EEEEESVQRAMERILHALQTGDWHTLSRMADPHVKLLVNGVELHGMEKIEEFLKKLLEELGVDKIDVRLHDFHTFNGVVHVDVRSHFNGRTHREEWVLLKVNGRWSLKEVRTE | 1.44 |
| EEEEKEADEEVRIMIKSLYTGDEDTVHEMADPNALVKVGDKTIHGMHLFLHTWIRRMEKHGIRVEVRLDDLEIQGEKIHIHLTLIYRFNGKDYPIEFEIHVNKINGQWRVSEIIEI | 1.25 |
| EEEEKEIKDLLREIFEMIVTGDWRLIRENMDPNARMEVGDKEVHGRDHVIHHLHNLGFKHIKEKDINVQGEKISIHGHVDVNGRSRHVDFIAHKVNGKWLYKSFHFH | 0.826 |
| EEEEKHAKHVAKEFLRLLFTGNEHRLKEYLDPNVRLDVNGQEFHGWEEIVKWLREIRFEDSRLHRIRVVGDKIDIDGELDGVINGRRVDRRSIIILFVVDGRYTEVTYRNI | 1.26 |
| EEEEKHEREMAKIMLDVLRTGDEELFERMFDPNTRYEVGDKILHGRHEVLRNWLEMIKKFKNARFITRHVHVFNGVLHINIEVRFDGRTHEYHIDLFFWDGRFKEVRVESH | 1.54 |
| EEEEKMARKMIKDIIENFRTGDWDLMETLADPDVRLHFNGRDYHGREEFLKIERTRFEKVPNVRETERNVTWRNFDGRLELEIHTEHIINGVRIHVLLIFTTEKINGRWSMKSIEIHEK | 0.704 |
| EEEEKVEHDLLRLFAEALSTGNEHIMAELLDPHVRIIVNGKHNIGRETRKTFIEHIRVRSEDVRIRTIEVQGDKIITDSEMDIILDFDGVRTTTTVEVQIIIWKYNGKWYIKMVKFK | 1.36 |
| EEEEQHMKEMAHIFIELMETGDEERLHKYFDPNWRFRIGDKHHHGRETYIHWLHQLGVDKVKVHLRHLDFQGDKLRIDSEREFDGKIEKIDIILIKFNGRWIINEIRVD | 1.29 |
| EEEERESEEKFRLLLELLRTGDEEILKHMADPNTKIVINGVDLHGWKEWHRIMRRFKNVTIRFKELWVYGDKAQARVEFDIDGKSFEMELHFVVINGRLKSIHVHSH | 2.11 |
| EEEERILFEEMEHLLHNFLTGNEEHLHELIDPRVRILIGDKDIHGMELHANIWKKVKGIKEEYHVHRVKLYNGRNEMDTEVRRVIDGQELSVRTKIIFDVVDGKLKSAEIRFH | 0.771 |
| EEEERVAVEFFRTLQESIRTGDEKTVKELADPNTRLDVGDKHFHGMEEIRKYWLRFDHFERHTLREEDFDVVNGVMSVHGRLEVHGRYNGQRVHTHYHMVIFVLKVNGRWKITEIKLH | 1 |
